Measured values published in patent US5536822A, “γ-phosphate linked adenosine 5' triphosphate sepharose” (University of Virginia Alumni Patents Foundation, priority 1994, dated 1996).

Assays:
[1] = tested on: T1, Nc1ncnc2c1ncn2[C@@H]1O[C@H](COP(=O)(O)OP(=O)(O)OP(=O)(O)O)[C@@H](O)[C@H]1O; test: Inhibition constant of the ATP derivative / Km for ATP, p60^c-src assay (peptide substrate); assay type: biochemical; settings: other: p60^c-src; pH 7.4
T1 construct: Department of Microbiology, University of Virginia (obtained from; not a purchase)
Text: [γ-^32 P] ATP was synthesized according to the procedure set forth in Johnson et al., Advances in Cyclic Nucleotide Research, 10:135-167 (1979). The catalytic subunit of cyclic-AMP-dependent protein kinase was purchased from Promega. p60^c-arc was obtained from the Department of Microbiology, University of Virginia. Recombinant p42^mapk was purified as described in Haystead et al., (1992) FEBS Lett., 306:17-22. STE7 antibody was obtained from the University of Vancouver, Canada.
The 42-kDa MAP kinase (p42^mapk) and MAPKK were assayed as described previously (Haystead et al. (1992) FEBS. Lett., 306:17-22). The cyclic-A kinase assays (30 μl) included 1 μg cyclic-A kinase, 2 mM Kemptide, 50 mM Hepes, pH 7.4, 1 mM dithiothreitol, 200 μM ATP, 5 mM MgCl2. […]
In order to assess the effectiveness of adenosine 5'-(γ-4-aminophenyl)triphosphate as an affinity ligand for protein kinases, the inhibition constants (Ki) of the derivative were determined for four different protein kinases, namely, p42^mapk, cyclic-A kinase, MAPKK and p60^c-arc (Table 1). […] This also facilitated comparisons for the relative binding constants determined with other ATP analogs (Flockhart et al. (1984) Eur. J. Biochem., 140:289-295; Hoppe et al. (1972) Eur. J. Biochem., 80:369-372; Taylor et al. (1990) Peptides and Protein Phosphorylation (Kemp et al.) pp 2-32, CRC Press).

[2] = tested on: Nc1ncnc2c1ncn2[C@@H]1O[C@H](COP(=O)(O)OP(=O)(O)OP(=O)(O)O)[C@@H](O)[C@H]1O; test: purified protein, by the assay type; settings: other: cyclic A kinase; pH 7.4
Text: However, since the Km for ATP varied for each protein kinase tested, for comparative purposes it was convenient to determine the Ki /Km quotient (Table 1).

Row | Substance | Km [1] [µM] | Km [2] [µM]
1 | p60^c-src (Homo sapiens) | 6.2 ± 1.30 | –
2 | Cyclic A kinase (Bos taurus) | – | 7.1 ± 0.51
